Laboratory results: the nanobody polyreactivity screen of Harvey et al. (2022)

Experiment: yeast display, Sf9 membrane polyspecificity reagent, FACS + sequencing; frameworks hold sequencing errors
Outline: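 Sorting gates, low and high (top ~1%), were placed on anti-HA fluorescence to track expression and on streptavidin fluorescence to track reagent binding. A clone's polyreactivity label is taken from the gate it came out of. The reagent was 10% biotinylated, detergent-solubilized Sf9 membrane, applied for 1 hour at 4 °C to galactose-induced yeast display cells.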

Sequence	polyreactivity (PSR sort gate)
QVQLVESGGGLVQARGSLRLSCAASGSTFSYNDMGWYRQAPGKERDLVADINVSVGRTYYADSVKGRFTISRDNAKNTVFLQMNSLKPEDTAVYYCNATLYTITSYVYAYDYWGQGTQVTVSS	low polyreactivity
QVQLVESGGGLVQAGGSLRLSCAASGYTSYTYTMGWYRQAPGKERELVAAISRRSDTTYADSVKGRFTISRDNAKNTVYLQMNSLKPEDTAVYYCAAVRVSYRSLSKSYYWGQGTQVTVSS	high polyreactivity
QVQLVESGGGLVQAGGSLRLSCAASGITFVRYAMGWYRQAPGKERELVAAINFSGGNTYYADSVKGRFTISRDNAKNTVYLQMNSLKPEDTAVYYCNAKRNYVRGRQGDWYIGYGYWGQGTQVTVSS	high polyreactivity
QVQLVESGGGLVQAGGSLRISCAAYGRIFGYYALGWYRQAPGKERELVAAITSGGSTNYADSVKGRFTISRDNAKNTVYLQMNSLKPEDTAVYYCAARSWYFSWEMYYWGQGTQVTVSS	high polyreactivity
QVQLVESGGGLVQAGGSLRLSCAASGRIFPYYVMGWYRQAPGKERELVAAISRSGSSTYYADSVKGRFTISRDNAKNTVYLQMNSLKPEDTAVYYCAADYNWSPYYTRGDYWGQGTQVTVSS	high polyreactivity
QVQLVESGGGLVQAGGRLRLSCAASGFIFTEYAMGWYRQSPGKERELVAAINSGGRTKYADSVKGRFTISRDNAKNTVFLQMNSLKPEDTAVYYCAARRFPTYDYWGQGTQVTVSS	high polyreactivity
QVQLVESGGGLVQAGGSLRLSCAASGRIFGDNAMGWSRQAPGKEWELVAAITVNAGSTHYAASVKGRFTISRDNAKNTVYLQMNSLKPEDTAVYYCAKQTAPVTGVGPYFYWGQGTQVTVSS	low polyreactivity
QVQLVESGGGLVQAGGSLRLSCAASGFIFASYAMGWYRQAPGKERELVATITRNGGITYYADSVKGRFTISRDNAKNTVYLQMNSLKPEDTAVYYCAKRRSGKSNVSFYPYAYDYWGQGTQVTVSS	low polyreactivity
QVQLHESGGGLVQAGGSLRLSCAASGTISVTYNMAWYRQAPGKEREFVAGNSTGATTNYADSVKGRFTISRDNAKNTVYLQMNSLKPEDTAVYYCAAHIYRQDHFYYWGQGTQVTVSS	low polyreactivity
QVQLVESGGGLVQAGGSLRLSCAASGLIFVSNAMGWYRQAPGKERELVAAISWSGSRTYYADSVKGRFTISRENAKNTVYLQMNSLKPEDTAVYYCNAVRRGLPVVGAYDYWGQGTQVTVSS	high polyreactivity
QVQLVESGGGLVQAGGSLRLSCAASGSIFYLNAMGWYRQAPGKERDLVAAIRWSGGSTRYADSVKGRCTISRDNAKNTVYLQMNSLKPEDTAVYYCAKYNPVLVYHWWYYYWGQGTQVTVSS	high polyreactivity
QVQLVESGGGLVQAGGSLRLSCAASGRTFYSYTMGWYRPAPGKERELVAAINRGGSTYYADSVKGRFTISRDNAKNTVYLQMNSLKPEDTAVYYCAVGYAHSSNRRYYYKKTHGYWGQGTQVTVSS	low polyreactivity
QVQLVESGGGLVQAGGSLRLSCAASGSTFERYAMGWYRQAPGKKWSWLPYADSVKGRFTISRDNAKNTVYLQMNSLKPEDTAVYYCNAERDSPPLNLDRGWEYDYWGQGTQVTVSS	low polyreactivity
QVQLVESGGGLVQAGGSLRLSCAASGSTFYKSTMGCYRQPPGKESELVPAISGSATTTYYADSVKGRFTISRDNAKNTVYLQMNSLKPEDTAVYYCAARRFSPGSSGHGYWGQGTQVNVSS	high polyreactivity
QVQLVESGGGLVQAGGSLRLSCAASGFIFLYNAMGWYRQAPGKERELVATISTGGDTTYADSVKGRFTISRDNAKNTVYLQMNSVKPEDTAVYYCAKLDLSIFRWDTEFGLYDYWGQGTQVTVLS	low polyreactivity
QVQVVESGGGLDNAGGSLGLSCAASGSIFYYNAMGWYRQAPGKERELVAAISSSGGSTYYADSVKGRFTISRDNAKNTVYLQMNSLKPEDTAVYYCAAKLRHWAHHTKYDYWGQGTQVTVSS	low polyreactivity
QVQLVESGGGLVQAGGSLRLSCAASGLTFYYNAMGWYRQAPGKERELVAAITWSTDSTYYADSVKGRFTISRDNAKNTVYLQMNSLKPEDTAVYYCAAAVDAFTNKQYYYWGQGTQVTVSS	low polyreactivity
